The values below come from publication PMC11698047, “The dual Ras-association domains of Drosophila Canoe have differential roles in linking cell junctions to the cytoskeleton during morphogenesis” (Journal of Cell Science, 2024).

To fix the notation:
B1: Drosophila melanogaster GTPase Rap1G12V (amino acids 1-180), GMPPNP-loaded (enzyme, UniProt P08645 1-180, looked up)
chain: MREYKIVVLGSVGVGKSALTVQFVQCIFVEKYDPTIEDSYRKQVEVDGQQCMLEILDTAGTEQFTAMRDLYMKNGQGFVLVYSITAQSTFNDLQDLREQILRVKDTDDVPMVLVGNKCDLEEERVVGKELGKNLATQFNCAFMETSAKAKVNVNDIFYDLVRQINKKSPEKKQKKPKKSL
notes: Rap1 GTPase, Drosophila melanogaster, amino acids 1-180, constitutively active G12V mutant; Loaded with the non-hydrolysable nucleotide GMPPNP and Mg2+ (formula mass 21.0 kDa); Cloned NdeI/EcoRI in pET28; a few vector residues probably remain at the N-terminus after thrombin cleavage (surmised); also called Rap1-GMPPNP; Rap1G12V-GMPPNP; source: E. coli BL21 DE3 pLysS, purified (Ni-NTA, thrombin …)
B2: Drosophila melanogaster Canoe RA1 domain (amino acids 1-137, including the αN helix) (domain or fragment, UniProt Q24279 1-137, looked up)
chain: MSHDKKMLDREAVRSVIQQWNANRLDLFALSEPDENLLFHGVMRFYFQDAGQKVATKCIRVASDATVTDVIDTLIEKFRPDMRMLSVPNYALYEVHANGEERRLNADEKPLLVQLNWHIDDREGRFLLKNIDQKTTP
notes: Canoe (Cno), Drosophila melanogaster, RA1 domain with its N-terminal αN helix, amino acids 1-137; The methods say that some RA1 preparations were purified without thrombin treatment; also called Cno RA1; source: E. coli BL21 DE3 pLysS, purified (Ni-NTA, thrombin cleavage, benzamidine sepharose, second Ni-NTA); not shown: His6, N-terminal, cleaved
B3: Drosophila melanogaster Canoe RA2 domain (amino acids 222-350, including the αN helix), with His-tag (domain or fragment, UniProt Q24279 222-350, looked up)
chain: TRSISNPEAVMRRRRQQKLEKKLQQFRSRDGGPDTGGTLKIYGESLCQDVPYKTLLLSIRDCAQAVVREMLTKYGLEKADPLHYCLVQVNSDGTEYILDDDECPLSILMNHPTSRGSIMFHVRRRPADS
notes: Canoe (Cno), Drosophila melanogaster, RA2 domain with its N-terminal αN helix, amino acids 222-350; Cloned NdeI/EcoRI in pET28; also called Cno RA2; RA2 with His-tag; source: E. coli BL21 DE3 pLysS, purified (Ni-NTA, without thrombin treatment); not shown: His6, N-terminal, kept

What all share (conditions): both partners purified
Test [1] has as its target B3. Put plainly: ITC; GMPPNP-loaded Rap1G12V (150-670 µM for RA1; 650-1200 µM for RA2) injected into the cell with RA1 (20-50 µM) or RA2 (42-80 µM); 25°C, buffer C (25 mM HEPES-NaOH pH 7.5, 100 mM NaCl, 5 mM MgCl2, 0.1% β-ME); one-site binding model.
Test [2] addresses B2. Described as above.
For test [3], the target named is B2. The experiment in a line: SEC-MALS; 100 µl of individual proteins (200 µM) or RA domain-Rap1G12V-GMPPNP complexes (200 µM complex) on Superdex 200, 0.5 ml/min, buffer C (25 mM HEPES-NaOH pH 7.5, 100 mM NaCl, 5 mM MgCl2, 0.1% β-ME) with 0.2 g/l sodium azide; in duplicate.
Test [4] deals with B1. The experiment in a line: ITC; GMPPNP-loaded Rap1G12V (150-670 µM for RA1; 650-1200 µM for RA2) injected into the cell with RA1 (20-50 µM) or RA2 (42-80 µM); 25°C, buffer C (25 mM HEPES-NaOH pH 7.5, 100 mM NaCl, 5 mM MgCl2, 0.1% β-ME); one-site binding model.

“And” between values parts separate entries of the source, which are not always exact repeats. Equal values may be shown once.

In the case of B1, the dH in test [1] was -3.07 kcal/mol and -2.18 kcal/mol and -2.72 kcal/mol; in test [2] it was -4.38 kcal/mol and -4.79 kcal/mol. Further, the “stoichiometry N” value in test [1] was 0.755 and 0.73 and 0.63; in test [2], 0.717; in test [3] it was 1.
Take B2: in test [4], the Kd is 4.5 µM and 5.9 µM.
With B3, the Kd in test [4] was 8.8 µM and 7.9 µM and 8.7 µM.
